From patent publication US20220289795, “EFFICIENT METHOD FOR PREPARING PPR PROTEIN AND USE OF THE SAME” (EditForce, Inc., published 2022)
Substitutions are numbered along the chain they refer to.

How the values were obtained:
Assay in all cases: ELONA; RPB-ELISA
v3.1_PPR10 = molecular target: T1, v3.1_PPR10 (Artificial Sequence); conditions: tags: luciferase fusion; label: 5'-biotin
T1 chain: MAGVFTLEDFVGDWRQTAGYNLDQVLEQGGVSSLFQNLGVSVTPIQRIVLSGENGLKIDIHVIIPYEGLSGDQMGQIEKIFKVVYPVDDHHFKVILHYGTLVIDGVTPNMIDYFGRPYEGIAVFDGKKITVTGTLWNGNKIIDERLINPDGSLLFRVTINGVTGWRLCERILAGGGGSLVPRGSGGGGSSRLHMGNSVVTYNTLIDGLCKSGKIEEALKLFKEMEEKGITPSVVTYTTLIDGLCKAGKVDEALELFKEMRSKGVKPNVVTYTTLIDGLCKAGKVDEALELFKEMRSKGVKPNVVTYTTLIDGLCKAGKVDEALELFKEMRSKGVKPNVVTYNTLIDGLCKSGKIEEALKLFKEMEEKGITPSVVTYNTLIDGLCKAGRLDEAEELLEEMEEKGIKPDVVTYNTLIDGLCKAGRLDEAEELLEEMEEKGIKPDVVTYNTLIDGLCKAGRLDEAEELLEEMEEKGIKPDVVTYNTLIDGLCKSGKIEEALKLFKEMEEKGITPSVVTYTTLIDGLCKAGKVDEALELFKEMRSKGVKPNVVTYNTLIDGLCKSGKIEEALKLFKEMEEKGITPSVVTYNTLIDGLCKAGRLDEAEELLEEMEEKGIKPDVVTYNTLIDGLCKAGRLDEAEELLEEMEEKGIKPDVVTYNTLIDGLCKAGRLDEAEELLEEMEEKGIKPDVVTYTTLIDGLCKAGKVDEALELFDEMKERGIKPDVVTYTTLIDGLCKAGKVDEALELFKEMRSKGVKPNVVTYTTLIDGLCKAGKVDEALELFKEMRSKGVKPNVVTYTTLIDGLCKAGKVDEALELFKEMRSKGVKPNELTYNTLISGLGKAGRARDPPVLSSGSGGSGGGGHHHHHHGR

NL_v2_PPR10 = molecular target: T2, NL_v2_PPR10 (Artificial Sequence); conditions: tags: N-term luciferase, C-term 6xHis; label: 5'-biotin
T2 chain: T1 chain with K248D, K283D, K318D, K528D, K738D, K773D, K808D

NL_v2_PPR11 = molecular target: T3, NL_v2_PPR11 (Artificial Sequence); conditions: tags: N-term luciferase, C-term 6xHis; label: 5'-biotin
T3 chain: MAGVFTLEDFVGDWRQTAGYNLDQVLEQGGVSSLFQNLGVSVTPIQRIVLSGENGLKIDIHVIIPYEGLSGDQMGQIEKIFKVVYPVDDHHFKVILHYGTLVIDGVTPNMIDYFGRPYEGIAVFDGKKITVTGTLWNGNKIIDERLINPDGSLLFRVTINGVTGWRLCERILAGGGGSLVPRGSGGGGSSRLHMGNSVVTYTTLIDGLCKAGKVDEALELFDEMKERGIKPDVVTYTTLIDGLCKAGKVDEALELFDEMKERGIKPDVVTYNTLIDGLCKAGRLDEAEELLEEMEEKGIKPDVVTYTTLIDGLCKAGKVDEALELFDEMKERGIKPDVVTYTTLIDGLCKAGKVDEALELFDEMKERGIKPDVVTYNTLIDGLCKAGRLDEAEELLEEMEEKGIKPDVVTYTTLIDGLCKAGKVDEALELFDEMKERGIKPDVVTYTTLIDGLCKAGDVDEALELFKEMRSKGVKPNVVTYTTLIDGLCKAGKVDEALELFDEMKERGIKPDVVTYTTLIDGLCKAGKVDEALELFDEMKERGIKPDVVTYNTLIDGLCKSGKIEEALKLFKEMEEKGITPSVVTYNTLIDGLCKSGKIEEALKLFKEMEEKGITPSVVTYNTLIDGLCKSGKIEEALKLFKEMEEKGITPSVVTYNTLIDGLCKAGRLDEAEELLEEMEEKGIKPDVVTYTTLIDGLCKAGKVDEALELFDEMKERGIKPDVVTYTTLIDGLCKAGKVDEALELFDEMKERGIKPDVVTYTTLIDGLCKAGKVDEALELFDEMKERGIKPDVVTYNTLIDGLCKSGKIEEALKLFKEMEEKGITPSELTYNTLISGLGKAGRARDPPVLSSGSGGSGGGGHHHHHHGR

v3.1_PPR11 = molecular target: T4, v3.1_PPR11 (Artificial Sequence); conditions: tags: luciferase fusion; label: 5'-biotin
T4 chain: T3 chain with D458K

NL_v2_PPR12 = molecular target: T5, NL_v2_PPR12 (Artificial Sequence); conditions: tags: N-term luciferase, C-term 6xHis; label: 5'-biotin
T5 chain: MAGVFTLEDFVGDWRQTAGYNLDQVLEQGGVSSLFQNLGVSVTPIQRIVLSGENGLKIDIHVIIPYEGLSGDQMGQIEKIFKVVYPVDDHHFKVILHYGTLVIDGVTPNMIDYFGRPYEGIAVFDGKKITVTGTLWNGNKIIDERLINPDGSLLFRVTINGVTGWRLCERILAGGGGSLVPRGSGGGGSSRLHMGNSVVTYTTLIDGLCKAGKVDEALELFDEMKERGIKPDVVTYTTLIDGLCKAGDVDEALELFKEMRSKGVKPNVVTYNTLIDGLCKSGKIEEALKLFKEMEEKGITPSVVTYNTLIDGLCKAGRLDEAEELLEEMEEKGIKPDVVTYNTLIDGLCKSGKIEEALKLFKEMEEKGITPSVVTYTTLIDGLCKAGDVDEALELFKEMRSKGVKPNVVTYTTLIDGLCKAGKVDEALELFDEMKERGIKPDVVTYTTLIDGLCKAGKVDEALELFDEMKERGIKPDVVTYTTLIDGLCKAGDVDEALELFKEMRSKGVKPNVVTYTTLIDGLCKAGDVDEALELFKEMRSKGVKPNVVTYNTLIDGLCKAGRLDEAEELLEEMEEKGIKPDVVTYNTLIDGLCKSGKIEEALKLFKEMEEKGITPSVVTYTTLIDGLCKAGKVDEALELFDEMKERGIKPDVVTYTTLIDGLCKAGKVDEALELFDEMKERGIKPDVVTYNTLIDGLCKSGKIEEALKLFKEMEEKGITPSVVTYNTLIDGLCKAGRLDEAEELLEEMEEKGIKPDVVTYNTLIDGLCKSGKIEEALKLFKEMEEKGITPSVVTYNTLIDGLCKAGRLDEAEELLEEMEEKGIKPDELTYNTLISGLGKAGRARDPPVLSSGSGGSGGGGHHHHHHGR

v3.1_PPR12 = molecular target: T6, v3.1_PPR12 (Artificial Sequence); conditions: tags: luciferase fusion; label: 5'-biotin
T6 chain: T5 chain with D248K, D388K, D493K, D528K

Binder: GACAUGCCAAACUUUCACUUUGAAAGACUG (ssRNA) [RNA_10]
- binding signal (v3.1_PPR10): 5.8e+07 luminescence
- binding signal (NL_v2_PPR10): 7.8e+06 luminescence

Binder: GACAUGCGGUGGUGAGGCCCUGGGCGACUG (ssRNA) [RNA_11]
- binding signal (NL_v2_PPR11): 1.2e+07 luminescence
- binding signal (v3.1_PPR11): 2.6e+07 luminescence

Binder: GACAUGCGACUCAGGAAUCGGCUCUGACUG (ssRNA) [RNA_12]
- binding signal (NL_v2_PPR12): 3.8e+07 luminescence
- binding signal (v3.1_PPR12): 1.8e+07 luminescence
